Changes are numbered by the printed parent chain.
Assays:
SrSSB D17K D71K mutant [1] = molecular target: T1, SrSSB D17K D71K mutant (Salinibacter ruber); assay: beacon dehybridization fluorescence, 2 uM protein; level similar to wt at half the concentration; maintained in high NaCl, KCl, MgCl2; 25 C; details: chain copies: octamer (stated); label: dT-DABCYL and dT-FAM internal; partial hairpin with short 8 bp stem and 24 nt single-stranded loop
T1 chain: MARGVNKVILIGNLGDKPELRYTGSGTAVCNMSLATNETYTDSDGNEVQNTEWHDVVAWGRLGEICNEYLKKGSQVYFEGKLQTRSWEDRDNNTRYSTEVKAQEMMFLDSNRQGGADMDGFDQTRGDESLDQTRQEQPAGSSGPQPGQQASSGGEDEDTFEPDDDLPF
Experimental: (§1) Wild-type S.ruber SSB and the D17K D71K mutant were tested for their ability to bind ssDNA in reaction buffer supplemented with NaCl, KCl, MgCl₂ and CaCl₂. E. coli SSB was used as a well characterized, reference protein.
(§2) Reactions contained 0.125 μM of molecular beacon and 0.25 μM of E. coli SSB tetramer (single binding unit), 4 μM of wt SrSSB and 2 μM of D17K D71K. Reaction mixtures were set up in triplicates in 50 μl of reaction buffer MB (10 mM Tris-HCl pH 7, 10 mM NaCl) containing the fluorescent probe and supplemented with an indicated concentration of NaCl, KCl or MgCl₂ in 96-well plate (Corning). The binding reaction was initiated by addition of the indicated SSB protein, next reactions were incubated at 25° C. for 15′ and the fluorescence was measured with excitation at 495 nm and emission at 520 nm on the Gemini plate reader (Molecular Devices). All graphs were normalized to 100% of initial response, measured in fluorescence units.

E. coli SSB = E. coli SSB (Escherichia coli, UniProt P0AGE0 P0AGE0:2-178); assay: beacon fluorescence, 0.25 uM tetramer; binding decreases significantly with increasing concentration of all tested salts; 25 C; details: chain copies: tetramer (stated); label: dT-DABCYL and dT-FAM internal; partial hairpin with short 8 bp stem and 24 nt single-stranded loop
Sequence of E. coli SSB (P0AGE0 2-178, one chain of several): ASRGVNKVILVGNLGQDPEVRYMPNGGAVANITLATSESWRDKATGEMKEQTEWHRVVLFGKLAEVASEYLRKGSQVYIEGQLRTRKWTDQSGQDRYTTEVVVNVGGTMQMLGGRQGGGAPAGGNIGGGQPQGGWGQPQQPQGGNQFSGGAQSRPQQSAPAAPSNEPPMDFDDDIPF
Experimental: as §1, §2

[2] = molecular target: T2, wild-type Salinibacter ruber SSB (SrSSB) (Salinibacter ruber DSM 13855); assay: beacon dehybridization fluorescence, 4 uM protein; binding maintained with NaCl to 1 M, KCl to 1 M, MgCl2 to 250 mM; 25 C; details: chain copies: octamer/dodecamer mixture at 0.15 M NaCl; mostly octamer at 2 M NaCl (stated); label: dT-DABCYL and dT-FAM internal; partial hairpin with short 8 bp stem and 24 nt single-stranded loop
T2 chain: T1 chain with K17D, K71D
Experimental: as §1, §2

SrSSB D17K D71K mutant [3] = molecular target: T1, SrSSB D17K D71K mutant; assay: SPR; 10 mM Tris-HCl pH 7, 10 mM NaCl; Chi2 0.624; details: chain copies: octamer (stated); label: 5'-biotin
From the text: (§3) Higher binding affinity of the D17K D71K mutant was also confirmed by probing the protein-ssDNA interaction strength directly with the use of Surface Plasmon Resonance on a T200 instrument (BIACORE). This biosensor-based technique enables real-time measurement of binding parameters that enables calculation of equilibrium dissociation constant (KD) of different complexes, including nucleoprotein complexes. To ensure that the measurement is not biased by nucleotide sequence, a randomly generated, 150 nucleotide, 5′-biotynylated ssDNA oligonucleotide was used (Table 2, SEQ ID NO:11). Oligonucleotides were attached to the surface of the SA S-type chip (BIACORE) via biotin-streptavidin interaction. Next, both proteins were run in dilutions: 10 nM, 20 nM, 40 nM, 100 nM, 150 nM, 200 nM, 300 nM over the chip surface in MB buffer (10 mM Tris-HCl pH 7, 10 mM NaCl). The binding event was detected by mass change on the chip surface, which enabled real time measurements of the kinetic parameters of protein-ssDNA interaction.

[4] = molecular target: T2, wild-type Salinibacter ruber SSB (SrSSB); assay: SPR; 10 mM Tris-HCl pH 7, 10 mM NaCl; Chi2 0.529; details: chain copies: octamer/dodecamer mixture at 0.15 M NaCl; mostly octamer at 2 M NaCl (stated); label: 5'-biotin
From the text: as §3

[5] = molecular target: T2, wild-type Salinibacter ruber SSB (SrSSB); assay: structure; PDB 5ODN; d(T)8 soaked; one ssDNA fragment per OB-fold; 0.25 M MgCl2, 1 M ammonium sulphate, pH 8.0; details: chain copies: octamer/dodecamer mixture at 0.15 M NaCl; mostly octamer at 2 M NaCl (stated)
Experimental: Small, prism-shaped crystals of wild-type S. ruber SSB were obtained in sitting drops consisting of 1 μl of protein solution (5 mg/ml) containing 20 μM of d(T)₇₅ oligonucleotide and 1 μl of reservoir solution (27% w/v PEG 3350, 100 mM Tris-HCl pH 8.0, 0.25M MgCl₂, 1 M ammonium sulphate). Soaking experiments were performed by adding d(T)₈ oligonucleotide to the drops containing formed crystals, to a final concentration of 0.25 μM.

B1: MB molecular beacon (ssDNA)
DNA: GGCCCGTAGGAGGAAAGGACATCTTCTAGCATACGGGCCGTCAAGTTCATGGCCAGTCAAGTCGTCAGAAATTTCGCACCAC
**Q.** Does B1 bind (SrSSB D17K D71K mutant [1])?
**A.** binds

**Q.** Does B1 bind (E. coli SSB)?
**A.** binds

**Q.** Does B1 bind [2]?
**A.** binds

B2: SPR 150nt oligonucleotide (ssDNA)
DNA: AAAGGGTATTGACGGACCAGATGTAGCGTGGCAGAAAAGGGTATTGACGGACCAGATGTAGCGTGGCAGAGACTGAAAGGGTATTGACGGACCAGATGTAGCGTGGCAGAAAAGGGTATTGACGGACCAGATGTAGCGTGGCAGAGACTG
**Q.** Which results are given for B2?
**A.** Kd (SrSSB D17K D71K mutant [3]): 0.0191 µM; Kd [4]: 0.0343 µM

**Q.** Does TTTTTTTT (ssDNA) [d(T)8] bind [5]?
**A.** binds

— US20190376122, “SINGLE-STRAND BINDING PROTEIN” (Universitetet I Tromsø - Norges Arktiske Universitet, published 2019)
